From PMC3808539 (2013)
Ends that are not written are not given here.

T1: FMLLRRKAYV (Bacillus subtilis)
T1 chain: FMLLRRKAYV-OH


Assays:
[1] = biological target: peptide having an Ala-Tyr-Ala C terminus; assay: ITC
[2] = biological target: peptide having an Ala-Tyr-Ala C terminus; assay: ITC; peptide …
FMLLRRKAYV = biological target: T1, FMLLRRKAYV; assay: ITC

Binder	Kd [1] [µM]	Kd [2] [µM]	Kd (FMLLRRKAYV) [µM]
CtpB R168F (enzyme) MADSERDKAMDKIEKAYELISNEYVEKVDREKLLEGAIQGMLSTLNDPYSVYMDKQTAKQFSDSLDSSFEGIGAEVGMEDGKIIIVSPFKKSPAEKAGLKPNDEIISINGESMAGKDLNHAVLKIFGKKGSSVSMKIQRPGTKKQLSFRIKRAEIPLETVFASEKKVQGHSVGYIAISTFSEHTAEDFAKALRELEKKEIEGLVIDVRGNPGGYLQSVEEILKHFVTKDQPYIQIAERNGDKKRYFSTLTHKKAYPVNVITDKGSASASEILAGALKEAGHYDVVGDTSFGKGTVQQAVPMGDGSNIKLTLYKWLTPNGNWIHKKGIEPTIAIKQPDYFSAGPLQLKEPLKVDMNNEDVKHAQVLLKGLSFDPGREDGYFSKDMKKAVMAFQDQNKLNKTGVIDTRTAETLNQQIEKKKSDEKNDLQLQTALKSLFVNLEHHHHHH	40	–	–
CtpB S309A, proteolytically inactive mutant (enzyme) MADSERDKAMDKIEKAYELISNEYVEKVDREKLLEGAIQGMLSTLNDPYSVYMDKQTAKQFSDSLDSSFEGIGAEVGMEDGKIIIVSPFKKSPAEKAGLKPNDEIISINGESMAGKDLNHAVLKIRGKKGSSVSMKIQRPGTKKQLSFRIKRAEIPLETVFASEKKVQGHSVGYIAISTFSEHTTEDFAKALRELEKKEIEGLVIDVRGNPGGYIQSVEEILKHFVTKDQPYIQIAERNGDKKRYFSTLTHKKAYPVNVITDKGSAAASEILAGALKEAGHYDVVGDTSFGKGTVQQAVPMGDGSNIKLTLYKWLTPNGNWIHKKGIEPTIAIKQPDYFSAGPLQLKEPLKVDMNNEDVKHAQVLLKGLSFDPGREDGYFSKDMKKAVMAFQDQNKLNKTGIIDTRTAETLNQQIEKKKSDEKNDLQLQTALKSLFVNLEHHHHHH	–	6.5	–
isolated PDZ domain of CtpB (domain or fragment) SVYMDKQTAKQFSDSLDSSFEGIGAEVGMEDGKIIIVSPFKKSPAEKAGLKPNDEIISINGESMAGKDLNHAVLKIRGKKGSSVSMKIQRP	–	2.3	0.9
CtpB R168A (enzyme) MADSERDKAMDKIEKAYELISNEYVEKVDREKLLEGAIQGMLSTLNDPYSVYMDKQTAKQFSDSLDSSFEGIGAEVGMEDGKIIIVSPFKKSPAEKAGLKPNDEIISINGESMAGKDLNHAVLKIAGKKGSSVSMKIQRPGTKKQLSFRIKRAEIPLETVFASEKKVQGHSVGYIAISTFSEHTAEDFAKALRELEKKEIEGLVIDVRGNPGGYLQSVEEILKHFVTKDQPYIQIAERNGDKKRYFSTLTHKKAYPVNVITDKGSASASEILAGALKEAGHYDVVGDTSFGKGTVQQAVPMGDGSNIKLTLYKWLTPNGNWIHKKGIEPTIAIKQPDYFSAGPLQLKEPLKVDMNNEDVKHAQVLLKGLSFDPGREDGYFSKDMKKAVMAFQDQNKLNKTGVIDTRTAETLNQQIEKKKSDEKNDLQLQTALKSLFVNLEHHHHHH	21	–	–
